Reference: US20100068208A1, “Degranulation inhibitor” (priority 2005, published 2010)
One block for each molecule: values may come before it. Where no end group is shown, it is not given here.

Assays:
human TGR12 = molecular target: T1, human TGR12 (Homo sapiens, UniProt Q96LB1); test: MAPK (ERK1/2) activation in human TGR12-expressed CHO cells (western blotting); assay type: cell-based; conditions: CHO-TGR12, PTX 0.1 μg/mL 4 hours before the assay
T1 construct: expressed in transfected cells
T1 sequence (Q96LB1 1-330): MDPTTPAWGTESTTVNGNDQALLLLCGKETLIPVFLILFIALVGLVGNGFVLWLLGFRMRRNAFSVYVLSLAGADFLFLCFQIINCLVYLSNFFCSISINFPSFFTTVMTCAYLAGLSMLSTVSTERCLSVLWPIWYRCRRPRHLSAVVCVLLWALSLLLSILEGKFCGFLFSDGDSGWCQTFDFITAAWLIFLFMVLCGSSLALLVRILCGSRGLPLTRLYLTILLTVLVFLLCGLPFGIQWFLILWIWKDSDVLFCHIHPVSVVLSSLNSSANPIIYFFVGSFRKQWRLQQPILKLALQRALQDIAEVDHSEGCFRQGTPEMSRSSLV
Procedure: CHO/dhfr^− cells (hereinafter CHO) were incubated in α-MEM (Invitrogen) containing 10% fetal calf serum. […] CHO-TGR12 was incubated in nucleic acid-free α-MEM (Invitrogen) containing 10% dialyzed fetal calf serum.
The cells were prepared as follows. […] After centrifugation, the deposited cells were suspended in the medium at 2×10^5 cells/ml and 1 mL each was plated in a 12-well cell culture dish. After incubation overnight in a CO2 incubator, the medium was aspirated and washed with PBS. […] Pertussis toxin (hereinafter PTX) was added at a final concentration of 0.1 μg/mL 4 hours before the assay.
Activation of the cells was performed as follows. The medium was aspirated and washed with PBS.
Detection by SDS-PAGE and western blotting was performed as follows. After resolving on a 10% Bis-Tris gel (Invitrogen), the proteins were transferred onto Immune-Blot PVDF membrane (BIO-RAD). The membrane was blocked in Block Ace (Dainippon Pharmaceutical), incubated at room temperature for an hour using a primary antibody (phospho-p42/p44 MAP kinase (Thr202/Thr204) antibody (CST) or p42/p44 MAP kinase antibody (CST)) and then incubated at room temperature for an hour using a secondary antibody (anti-rabbit IgG (CST)). The membrane after the antibody reaction was visualized by chemiluminescence with ECL PLUS (Amersham Biosciences), followed by detection and image analysis using LAS1000 (FUJI FILM).

[1] = molecular target: T2, TGR12-GFP (fused protein of human TGR12 and GFP, encoded by the DNA of SEQ ID NO: 45), stably expressed on … (human, UniProt Q96LB1 1-330); test: competition with 200 pM [125I]-rCST14 (Y0) on CHO-TGR12GFP cells, Hill plot
T2 construct: also called TGR12-GFP expression CHO cell line; not shown: GFP (Wako Pure Chemical) fused after the C-terminus of TGR12
T2 sequence: T1 sequence (Q96LB1 1-330)
Procedure: The binding assay using CHO-TGR12GFP was performed as follows. […] After incubation overnight, the cells were washed 3 times with ice-chilled assay buffer (MEM-α, 20 mM HEPES (pH 7.4), 0.05% BSA) and 250 μL of the assay buffer was added thereto. […] After washing 3 times with 500 μL of the assay buffer, the cells were lysed in 250 μL of 0.5N NaOH and the lysate was recovered for measurement of the radioactivity.
Based on the above, non-specific binding was estimated as the activity of 10 μM rat cortistatin-14 and the IC₅₀ value of each peptide was obtained from Hill plot analysis.

[2] = molecular target: T3, TGR12-GFP (fused protein of human TGR12 and GFP, encoded by the DNA of SEQ ID NO: 31), stably expressed on … (human, UniProt Q96LB1 1-330); test: cell-based or functional assay
T3 sequence: T1 sequence (Q96LB1 1-330)

human TGR12 (untagged) = molecular target: T4, human TGR12 (untagged) (human, UniProt Q96LB1 1-330); test: cell-based or functional assay
T4 sequence: T1 sequence (Q96LB1 1-330)

Molecule: Pertussis toxin [PTX]
attenuation by pretreatment of phosphorylation of ERK1/2 with ATP (human TGR12): not observed | effect of pretreatment on phosphorylation of ERK1/2 by substance P (human TGR12): attenuated

IC50 [1]: 2040 nM | EC50 in the calcium increasing effect on CHO-TGR12 [2]: ~305 nM | maximum activity in the calcium increasing effect (FLIPR), CHO-TGR12, at 0.3 nM [2]: 56 fluorescence intensity | maximum activity in the calcium increasing effect (FLIPR), CHO-TGR12, at 3 nM [2]: 60 fluorescence intensity | maximum activity in the calcium increasing effect (FLIPR), CHO-TGR12, at 30 nM [2]: 16 fluorescence intensity | maximum activity in the calcium increasing effect (FLIPR), CHO-TGR12, at 300 nM [2]: 11200 fluorescence intensity | maximum activity in the calcium increasing effect (FLIPR), CHO-TGR12, at 3000 nM [2]: 24000 fluorescence intensity | EC50 in the degranulation on LAD 2 (human TGR12 (untagged)): ~105 nM | degranulation of LAD 2 (beta-hexosaminidase release, % of total) at 10 nM (human TGR12 (untagged)): 1.5% | degranulation of LAD 2 (beta-hexosaminidase release, % of total) at 30 nM (human TGR12 (untagged)): 4% | degranulation of LAD 2 (beta-hexosaminidase release, % of total) at 100 nM (human TGR12 (untagged)): 36.7% | degranulation of LAD 2 (beta-hexosaminidase release, % of total) at 300 nM (human TGR12 (untagged)): 63.9% | degranulation of LAD 2 (beta-hexosaminidase release, % of total) at 3 µM (human TGR12 (untagged)): 76.1%
B1: human VIP (vasoactive intestinal polypeptide) (peptide, UniProt P01282 125-152, looked up)
peptide: HSDAVFTDNYTRLRKQMAVKKYLNSILN
modifications: not fully specified; ends and bridges not checked
notes: domain: VIP; also called vasoactive intestinal peptide
